B1: NETO1 (parent)
chain: GFSPIIGRFCGQQNPPVIKSSGRF

Variants of: B1
Assay: protein stability index of a GFP-peptide fusion (GPS, HEK-293T) (PSI 1-6); higher = more stable
Conditions: c terminus: a fixed tail appended
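Further: lentivirally expressed fusions sorted by FACS into six bins by GFP to DsRed ratio, PSI derived from sequencing read proportions per bin multiplied by bin number.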

Point of comparison: GFSPIIWRFCGQQNPPVIKSSGRF, protein stability index 1.42. Against it:
- GFRPIIGRFCGQQNPPVIKSSGRF — higher, 2.04
- GFNPIIGRFCGQQNPPVIKSSGRF — higher, 2.08
- GFPPIIGRFCGQQNPPVIKSSGRF — higher, 1.75
- GFYPIIGRFCGQQNPPVIKSSGRF — higher, 1.53
- GFEPIIGRFCGQQNPPVIKSSGRF — higher, 2.78
- GFWPIIGRFCGQQNPPVIKSSGRF — higher, 1.75
- GFGPIIGRFCGQQNPPVIKSSGRF — higher, 2.2
- GFLPIIGRFCGQQNPPVIKSSGRF — higher, 1.68
- GFMPIIGRFCGQQNPPVIKSSGRF — higher, 1.84
- GFCPIIGRFCGQQNPPVIKSSGRF — lower, 1.22
- GFDPIIGRFCGQQNPPVIKSSGRF — higher, 2.41
- GFKPIIGRFCGQQNPPVIKSSGRF — higher, 2.47
- GFHPIIGRFCGQQNPPVIKSSGRF — higher, 2.03
- GFAPIIGRFCGQQNPPVIKSSGRF — higher, 2.6
- GFFPIIGRFCGQQNPPVIKSSGRF — higher, 2.56
- GFQPIIGRFCGQQNPPVIKSSGRF — higher, 2.49
- GFIPIIGRFCGQQNPPVIKSSGRF — higher, 1.71
- GFTPIIGRFCGQQNPPVIKSSGRF — higher, 2.4
- GFVPIIGRFCGQQNPPVIKSSGRF — higher, 2.03
- GFSPIIGRFMGQQNPPVIKSSGRF — higher, 2.27
- GFSPIIGRFAGQQNPPVIKSSGRF — higher, 3.07
- GFSPIIGRFDGQQNPPVIKSSGRF — higher, 2.71
- GFSPIIGRFIGQQNPPVIKSSGRF — higher, 2.86
- GFSPIIGRFWGQQNPPVIKSSGRF — higher, 2.3
- GFSPIIGRFEGQQNPPVIKSSGRF — higher, 3.76
- GFSPIIGRFLGQQNPPVIKSSGRF — higher, 2.79
- GFSPIIGRFTGQQNPPVIKSSGRF — higher, 3.29
- GFSPIIGRFGGQQNPPVIKSSGRF — higher, 3.05
- GFSPIIGRFHGQQNPPVIKSSGRF — higher, 2.38
- GFSPIIGRFFGQQNPPVIKSSGRF — higher, 2.51
- GFSPIIGRFRGQQNPPVIKSSGRF — higher, 2.63
- GFSPIIGRFKGQQNPPVIKSSGRF — higher, 2.93
- GFSPIIGRFNGQQNPPVIKSSGRF — higher, 3.13
- GFSPIIGRFPGQQNPPVIKSSGRF — higher, 3.47
- GFSPIIGRFQGQQNPPVIKSSGRF — higher, 2.4
- GFSPIIGRFVGQQNPPVIKSSGRF — higher, 2.46
- GFSPIIGRFYGQQNPPVIKSSGRF — higher, 2.42
- GFSPIIGRFSGQQNPPVIKSSGRF — higher, 2.9
- GRSPIIGRFCGQQNPPVIKSSGRF — higher, 2.16
- GPSPIIGRFCGQQNPPVIKSSGRF — higher, 2.5
- GYSPIIGRFCGQQNPPVIKSSGRF — higher, 2.02
- GTSPIIGRFCGQQNPPVIKSSGRF — higher, 2.46
- GSSPIIGRFCGQQNPPVIKSSGRF — higher, 2.75
- GQSPIIGRFCGQQNPPVIKSSGRF — higher, 2.91
- GVSPIIGRFCGQQNPPVIKSSGRF — higher, 2.13
- GWSPIIGRFCGQQNPPVIKSSGRF — higher, 1.52
- GFSPSIGRFCGQQNPPVIKSSGRF — higher, 2.62
- GFSPRIGRFCGQQNPPVIKSSGRF — higher, 2.79
- GFSPYIGRFCGQQNPPVIKSSGRF — higher, 2.36
- GFSPWIGRFCGQQNPPVIKSSGRF — the same, 1.42
- GFSPKIGRFCGQQNPPVIKSSGRF — higher, 2.75
- GFSPQIGRFCGQQNPPVIKSSGRF — higher, 2.52
- GFSPGIGRFCGQQNPPVIKSSGRF — higher, 2.31
- GFSPHIGRFCGQQNPPVIKSSGRF — higher, 2.59
- GFSPLIGRFCGQQNPPVIKSSGRF — higher, 2.17
- GFSPNIGRFCGQQNPPVIKSSGRF — higher, 2.34
- GFSPAIGRFCGQQNPPVIKSSGRF — higher, 2.05
- GFSPFIGRFCGQQNPPVIKSSGRF — higher, 1.79
- GFSPDIGRFCGQQNPPVIKSSGRF — higher, 2.92
- GFSPCIGRFCGQQNPPVIKSSGRF — higher, 2.12
- GFSPVIGRFCGQQNPPVIKSSGRF — higher, 1.87
- GFSPPIGRFCGQQNPPVIKSSGRF — higher, 2.79
- GFSPMIGRFCGQQNPPVIKSSGRF — higher, 2.19
- GFSPEIGRFCGQQNPPVIKSSGRF — higher, 3.22
- GFSPTIGRFCGQQNPPVIKSSGRF — higher, 2.36
- GFSPIIGRACGQQNPPVIKSSGRF — higher, 2.87
- GFSPIIGRWCGQQNPPVIKSSGRF — higher, 2.27
- GFSPIIGRGCGQQNPPVIKSSGRF — higher, 1.97
- GFSPIIGRECGQQNPPVIKSSGRF — higher, 3.73
- GFSPIIGRCCGQQNPPVIKSSGRF — higher, 2.06
- GFSPIIGRNCGQQNPPVIKSSGRF — higher, 2.42
- GFSPIIGRLCGQQNPPVIKSSGRF — higher, 2.49
- GFSPIIGRRCGQQNPPVIKSSGRF — higher, 2.07
- GFSPIIGRYCGQQNPPVIKSSGRF — higher, 1.98
- GFSPIIGRVCGQQNPPVIKSSGRF — higher, 2.66
- GFSPIIGRSCGQQNPPVIKSSGRF — higher, 1.98
- GFSPIIGRMCGQQNPPVIKSSGRF — higher, 2.17
- GFSPIIGRKCGQQNPPVIKSSGRF — higher, 2.49
- GFSPIIGRPCGQQNPPVIKSSGRF — higher, 1.95
- GFSPIIGRQCGQQNPPVIKSSGRF — higher, 2.38
- GFSPIIGRTCGQQNPPVIKSSGRF — higher, 1.75
- GFSPIIGRHCGQQNPPVIKSSGRF — higher, 1.69
- GFSPIIGRDCGQQNPPVIKSSGRF — higher, 3.31
- GFSPIIGRICGQQNPPVIKSSGRF — higher, 2.45
- GFSPIMGRFCGQQNPPVIKSSGRF — higher, 2.05
- GFSPIEGRFCGQQNPPVIKSSGRF — higher, 3.28
- GFSPIKGRFCGQQNPPVIKSSGRF — higher, 3.17
- GFSPITGRFCGQQNPPVIKSSGRF — higher, 2.39
- GFSPIHGRFCGQQNPPVIKSSGRF — higher, 2.77
- GFSPIAGRFCGQQNPPVIKSSGRF — higher, 2.1
- GFSPIDGRFCGQQNPPVIKSSGRF — higher, 3.54
- GFSPIPGRFCGQQNPPVIKSSGRF — higher, 2.95
- GFSPINGRFCGQQNPPVIKSSGRF — higher, 2.37
- GFSPISGRFCGQQNPPVIKSSGRF — higher, 2.94
- GFSPIYGRFCGQQNPPVIKSSGRF — higher, 1.91
- GFSPIWGRFCGQQNPPVIKSSGRF — higher, 2.68
- GFSPILGRFCGQQNPPVIKSSGRF — higher, 2.55
- GFSPIQGRFCGQQNPPVIKSSGRF — higher, 2.38
- GFSPIVGRFCGQQNPPVIKSSGRF — higher, 2.15
- GFSPICGRFCGQQNPPVIKSSGRF — higher, 2.11
- GFSPIGGRFCGQQNPPVIKSSGRF — higher, 2.58
- GFSPIFGRFCGQQNPPVIKSSGRF — higher, 2.16
- GFSPIRGRFCGQQNPPVIKSSGRF — higher, 3.09
- GFSPIIGHFCGQQNPPVIKSSGRF — higher, 1.79
- GFSPIIGEFCGQQNPPVIKSSGRF — higher, 3.19
- GFSPIIGGFCGQQNPPVIKSSGRF — higher, 2.16
- GFSPIIGTFCGQQNPPVIKSSGRF — higher, 2.18
- GFSPIIGSFCGQQNPPVIKSSGRF — higher, 2.05
- GFSPIIGIFCGQQNPPVIKSSGRF — higher, 2.43
- GFSPIIGVFCGQQNPPVIKSSGRF — higher, 2.23
- GFSPIIGCFCGQQNPPVIKSSGRF — higher, 1.61
- GFSPIIGNFCGQQNPPVIKSSGRF — higher, 2.04
- GFSPIIGLFCGQQNPPVIKSSGRF — higher, 1.83
- GFSPIIGWFCGQQNPPVIKSSGRF — higher, 1.93
- GFSPIIGYFCGQQNPPVIKSSGRF — higher, 1.83
- GFSPIIGMFCGQQNPPVIKSSGRF — higher, 1.76
- GFSPIIGFFCGQQNPPVIKSSGRF — higher, 1.62
- GFSPIIGPFCGQQNPPVIKSSGRF — higher, 2.61
- GFSPIIGAFCGQQNPPVIKSSGRF — higher, 2.72
- GFSPIIGKFCGQQNPPVIKSSGRF — higher, 2.19
- GFSPIIGQFCGQQNPPVIKSSGRF — higher, 2.19
- GFSPIIGDFCGQQNPPVIKSSGRF — higher, 2.63
- GFSPIIKRFCGQQNPPVIKSSGRF — higher, 1.89
- GFSPIIDRFCGQQNPPVIKSSGRF — higher, 2.66
- GFSPIILRFCGQQNPPVIKSSGRF — higher, 1.85
- GFSPIIERFCGQQNPPVIKSSGRF — higher, 2.39
- GFSPIIVRFCGQQNPPVIKSSGRF — higher, 1.83
- GFSPIIMRFCGQQNPPVIKSSGRF — higher, 1.56
- GFSPIIHRFCGQQNPPVIKSSGRF — higher, 1.74
- GFSPIIARFCGQQNPPVIKSSGRF — higher, 1.73
- GFSPIITRFCGQQNPPVIKSSGRF — higher, 2.47
- GFSPIINRFCGQQNPPVIKSSGRF — higher, 2.38
- GFSPIIFRFCGQQNPPVIKSSGRF — higher, 2.03
- GFSPIIRRFCGQQNPPVIKSSGRF — higher, 2.25
- GFSPIIPRFCGQQNPPVIKSSGRF — higher, 1.65
- GFSPIIIRFCGQQNPPVIKSSGRF — higher, 2.88
- GFSPIISRFCGQQNPPVIKSSGRF — higher, 2.3
- GFSPIIYRFCGQQNPPVIKSSGRF — higher, 1.64
- GFSMIIGRFCGQQNPPVIKSSGRF — higher, 2.36
- GFSNIIGRFCGQQNPPVIKSSGRF — higher, 1.69
- GFSDIIGRFCGQQNPPVIKSSGRF — higher, 1.57
- GFSFIIGRFCGQQNPPVIKSSGRF — higher, 2.09
- GFSKIIGRFCGQQNPPVIKSSGRF — higher, 2.59
- GFSYIIGRFCGQQNPPVIKSSGRF — higher, 2.44
- GFSCIIGRFCGQQNPPVIKSSGRF — higher, 1.88
- GFSVIIGRFCGQQNPPVIKSSGRF — higher, 1.87
- GFSHIIGRFCGQQNPPVIKSSGRF — higher, 2.05
- GFSGIIGRFCGQQNPPVIKSSGRF — higher, 1.74
- GFSTIIGRFCGQQNPPVIKSSGRF — lower, 1.26
- GFSEIIGRFCGQQNPPVIKSSGRF — higher, 2.33
- GFSSIIGRFCGQQNPPVIKSSGRF — higher, 1.99
- GFSRIIGRFCGQQNPPVIKSSGRF — higher, 1.82
- GFSQIIGRFCGQQNPPVIKSSGRF — higher, 1.91
- GFSAIIGRFCGQQNPPVIKSSGRF — higher, 2.12
- GFSWIIGRFCGQQNPPVIKSSGRF — higher, 1.91
- GFSPIIGRFCAQQNPPVIKSSGRF — higher, 2.01
- GFSPIIGRFCDQQNPPVIKSSGRF — higher, 2.76
- GFSPIIGRFCRQQNPPVIKSSGRF — higher, 1.63
- GFSPIIGRFCYQQNPPVIKSSGRF — higher, 1.89
- GFSPIIGRFCPQQNPPVIKSSGRF — higher, 2.58
- GFSPIIGRFCNQQNPPVIKSSGRF — higher, 2.17
- GFSPIIGRFCSQQNPPVIKSSGRF — higher, 2.38
- GFSPIIGRFCLQQNPPVIKSSGRF — higher, 2.31
- GFSPIIGRFCTQQNPPVIKSSGRF — higher, 2.58
- GFSPIIGRFCCQQNPPVIKSSGRF — higher, 1.6
- GFSPIIGRFCHQQNPPVIKSSGRF — higher, 1.91
- GFSPIIGRFCVQQNPPVIKSSGRF — higher, 2.36
- GFSPIIGRFCIQQNPPVIKSSGRF — higher, 1.83
- GFSPIIGRFCFQQNPPVIKSSGRF — higher, 2.03
- GFSPIIGRFCQQQNPPVIKSSGRF — higher, 2.38
- GFSPIIGRFCEQQNPPVIKSSGRF — higher, 2.54
- GFSPIIGRFCMQQNPPVIKSSGRF — higher, 1.51
- GFSPIIGRFCWQQNPPVIKSSGRF — higher, 2.26
- GFSPIIGRFCKQQNPPVIKSSGRF — higher, 1.91
- GFSPIIGRFCGIQNPPVIKSSGRF — higher, 2.16
- GFSPIIGRFCGGQNPPVIKSSGRF — higher, 2.26
- GFSPIIGRFCGAQNPPVIKSSGRF — higher, 1.57
- GFSPIIGRFCGMQNPPVIKSSGRF — higher, 1.94
- GFSPIIGRFCGDQNPPVIKSSGRF — higher, 2.53
- GFSPIIGRFCGCQNPPVIKSSGRF — higher, 2.32
- GFSPIIGRFCGFQNPPVIKSSGRF — higher, 1.8
- GFSPIIGRFCGKQNPPVIKSSGRF — higher, 2.33
- GFSPIIGRFCGHQNPPVIKSSGRF — higher, 2.3
- GFSPIIGRFCGPQNPPVIKSSGRF — higher, 2.75
- GFSPIIGRFCGNQNPPVIKSSGRF — higher, 2.35
- GFSPIIGRFCGEQNPPVIKSSGRF — higher, 2.35
- GFSPIIGRFCGLQNPPVIKSSGRF — higher, 1.75
